Source: patent US20250355001A1, “METHOD FOR DETECTING A TAU PROTEIN FRAGMENT IN A SAMPLE” (GTINVENT LIMITED, priority 2022, published 2025)

B1: CE2: anti-tau core clone, Table 10; SEQ ID NO: 366 (protein)
scFv: QVQLQESGPSLVKPSQTLSLTCTVSGFSLTNYPVGWVRQAPGKALEWIGNIENDGSANYASALKSRLSITRDTSKNQVSLSLSSATTEDTAVYYCGREFGGSDGYTYFVDIDYWGPGLLVTVSSEGKSSGASGESKVDDQAVLTQPSSVSKSLGQSVSITCSGSSSNVGYGNYVSWFQQVPGSAPKILIYGATSRASGVPDRFSGSRSGNTATLTITSLQAEDEADYYCASYDGSSSGVFGSGTRLTVLG
modifications: CE2/E1B8 amino acid sequence
B2: S1G2: sheep-derived anti-tau core clone; scFv SEQ ID NO: 81, VH 455, VL 456 (protein)
scFv: QVQLQESGPSLVKPSQTLSLTCTVSGFSLTSNSVGWVRQAPGKAPEWVAGIDTDGEEGYNPALNSRLSITRDTSKSQVSLSLSSVTSEDTAVYYCGRSYRADGLAYGYVQAIDYWGPGLLVTVSSEGKSSGASGESKVDDQAVVTQPSSVSGSLGQRVSITCSGSFIGISSVGWFQQLPGSGLRTIIVASDGRPSGVPDRFSMSKSGNTATLTISSLQAEDEADYFCGSSDRTPYTGVFGSGTRLTVLG
modifications: S1G2 amino acid sequence
B3: S1D12: sheep-derived anti-tau core clone; scFv SEQ ID NO: 32, VH 443, VL 444 (protein)
scFv: QVQLQESGPSLVKPSQTLSLTCTVSGFSLNNNAVGWVRQAPGKVPESLVGCSSDGTCYYNSALKSRLDITRDTSKNQISLSLSSVTTDDAAVYYCTRGHYSIYGYDYLGTIDYWGPGLLVTVSSEGKSSGASGESKVDDQAVLTQPSSVSGSLGQRVSITCSGSSSNVGGGNSVGWYQHLPGSGLKTIIYDTNSRPSGVPDRFSGSRSGNTATLTINSLQAEDEGDYYCVTGDSTTHDDLVGSGTRLTVLG
modifications: S1D12 amino acid sequence

What was measured:
[1] = tested on: 13 aa tau peptides of hT40; assay: Alanine scanning mutagenesis (ASM) peptide ELISA; assay type: binding, human; conditions: alanine substituted peptides; numbering SEQ ID NO: 1
Protocol: Briefly, 5 μg/ml streptavidin (Thermo Fisher) was adsorbed to Nunc 96-well MaxiSorp plates and following incubation at 37° C. for 1 h, the plates were washed as normal and blocked with 2% MPBS. N-terminally biotinylated peptides (Prolmmune Ltd) were added to the plates and incubated for 1 h at 37° C. Subsequently, test scAbs at starting concentrations of 100-500 nM was added and double diluted across the plate for each peptide and incubated for 1 h at 37° C. Rest of the ELISA was conducted as described above and the plates were read at absorbance 450 nm. Immunoreactivity of the scAb of interest was quantified as the % of scAb was bound for each peptide at a chosen concentration (FIG. 15-20).

[2] = target: T1, hT40 (T441, SEQ ID NO: 1) (Homo sapiens, UniProt P10636); assay: Biacore X100 SPR kinetics of scAbs for hT40; assay type: binding; conditions: Table 23; scAb captured, T441 (hT40) analyte; 1:1 model
T1 construct: Full length tau (hT40)
Summary of the method: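 Captured scAb on anti-HuCk CM5 surface (flow cell 1 as reference) in HBS-EP+, capture set for theoretical RMax 100 RU; hT40 injected multi-cycle (0.15625–100 nM) or single-cycle (6.25–100 nM), 120 s association, 420 s dissociation, glycine pH 2.0 regeneration. Kinetics and affinity from 1:1 binding model fit.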

dGAE aggregates = dGAE aggregates (Homo sapiens, UniProt P10636); assay: Epitope occlusion assay: dGAE aggregation with/without LMTM, 423 mAb capture ELISA; assay type: biochemical; conditions: total and supernatant samples; 423 mAb capture
Protocol: During dGAE aggregation in vitro, scAb binding regions on dGA/dGAE are ‘hidden’ or ‘occluded’ which leads to a loss of immunoreactivity in aggregation samples. Here we have shown the occlusion of binding regions in aggregated dGAE samples and the recovery of immunoreactivity in the presence of LMTM, a tau-aggregation inhibitor. For preparing the aggregates, 10 μl 10 mM DTT was added to 1000 μl 100 μM dGAE and agitated with/without LMTM (1:5 ratio) at 700 rpm for 24 h at 37° C. Following overnight agitation, one third of each sample was kept aside as ‘total’ and the rest was spun down at 16000×g for 30 min and separated into ‘supernatant’ and ‘pellet’. The pellet was then resuspended in half the original volume for further experiments. […] Doubling dilutions of dGAE aggregate ‘total’, ‘supernatant’ and ‘pellet’ samples at 10 μg/ml starting concentration were added to designated wells in doubling dilutions in 1×PBS. dGAE monomer (non-aggregated) was included as assay control. All double dilutions were done in final volumes of 100 μl. This was left to incubate on lab bench for 1 h followed by the addition of test scAbs at 10 μg/ml. Anti-HuCk HRP labelled secondary antibody was added as described previously and ELISA data generated is represented using the graph below.

aggregated dGAE = aggregated dGAE (Homo sapiens, UniProt P10636); assay: Capture ELISA ranking mAbs for capture of dGAE aggregates; assay type: binding; conditions: capture mAb 1 μg/ml; 800 nM aggregated dGAE
Protocol: The aggregation cascade of natively unfolded tau into insoluble filaments is a defining pathological feature of AD. Therefore, it is logical to target aggregated tau filaments for both therapeutic and diagnostic purposes. The following experiment was performed to assess the ability of our dGA mAb panel to bind aggregated dGAE using a capture ELISA method. Aggregates were prepared by incubating 100 μM dGAE and 10 mM dTT for 24 h at 37° C. with shaking at 700 RPM. The following day, dGAE aggregates were centrifuged at 17,000×g for 20 min and the supernatant was removed. The remaining pellet was washed with 10 mM phosphate buffer and centrifuged as above. Washing was repeated a further two times to remove any remaining dGAE monomer. The dGAE pellet was resuspended in 100 μl of 10 mM phosphate buffer. (Using a separate capture ELISA based quantification, we have worked out the efficiency of our dGAE aggregation as 80%)
Following washing, 800 nM aggregated dGAE was added to the designated wells, double diluted across the plate and incubated for 1 h at RT. The plate was washed again and 1 μg/ml S1G2 scAb was added as detection antibody and incubated for 1 h at RT. To the row where S1G2 mAb was used for capture, […] s1D12 scAb was added as […] instead of S1G2. The assay was developed using HRP labelled HuCK as described previously.

T1 sequence (P10636 1-441 isoform P10636-8): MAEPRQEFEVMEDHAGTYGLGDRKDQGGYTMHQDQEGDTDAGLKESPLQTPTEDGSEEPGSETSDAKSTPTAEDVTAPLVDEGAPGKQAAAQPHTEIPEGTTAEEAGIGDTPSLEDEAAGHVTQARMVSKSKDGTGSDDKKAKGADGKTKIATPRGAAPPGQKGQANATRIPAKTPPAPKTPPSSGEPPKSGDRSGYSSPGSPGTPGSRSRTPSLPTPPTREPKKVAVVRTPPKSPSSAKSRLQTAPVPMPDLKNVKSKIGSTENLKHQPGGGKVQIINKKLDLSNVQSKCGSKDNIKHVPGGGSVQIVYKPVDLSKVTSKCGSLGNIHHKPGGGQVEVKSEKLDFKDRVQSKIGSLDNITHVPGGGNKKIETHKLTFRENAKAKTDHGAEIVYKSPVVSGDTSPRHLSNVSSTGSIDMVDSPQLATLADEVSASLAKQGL
aggregated dGAE, sequence (P10636 614-708): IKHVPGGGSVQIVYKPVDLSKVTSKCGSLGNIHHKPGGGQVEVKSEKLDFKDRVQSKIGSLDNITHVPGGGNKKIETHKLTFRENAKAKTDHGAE
dGAE aggregates, sequence (P10636 614-708): as above

| Molecule | critical binding residues [1] | ka [2] [M⁻¹ s⁻¹] | kd [2] [s⁻¹] | immunoreactivity to dGAE aggregation samples prepared in the presence of LMTM (dGAE aggregates) | ability to capture dGAE aggregates (aggregated dGAE) |
| --- | --- | --- | --- | --- | --- |
| B1 | 323 (G), 324 (S), 325 (L), 326 (G), 327 (N) and/or 328 (I) | 213700 | 0.001077 | increase in immunoreactivity | – |
| B2 | – | 1.057e+06 | 0.00018 | – | most efficient at capturing aggregated dGAE |
| B3 | 343 (K), 346 (F) and/or 349 (R) | 1.252e+06 | 0.00015 | increase in immunoreactivity | most efficient at capturing aggregated dGAE |
